Source: article PMC4945878

Legend:
[1] = molecular target: Claspin #25 (N-terminal polypeptide) (human, UniProt Q9HAW4 1-896); experiment: EMSA; plus #13 DE/A (aa897-1209) 1.5 or 3 pmol, no significant inhibition; 10 mM Tris-HCl pH 7.5, 40 ug/ml BSA, 1 mM DTT, EDTA (50 mM as printed for EMSA; 0.5 mM for filter binding), 20 mM K-glutamate, 8% glycerol, 30 C, 1 h
Claspin Cdel1 = Claspin Cdel1 (human, UniProt Q9HAW4 1-985+=GS+1210-1339, internal_change); experiment: EMSA; higher affinity than full-length; 10 mM Tris-HCl pH 7.5, 40 ug/ml BSA, 1 mM DTT, EDTA (50 mM as printed for EMSA; 0.5 mM for filter binding), 20 mM K-glutamate, 8% glycerol, 30 C, 1 h
Sequence of Claspin Cdel1 (Q9HAW4 other isoform, or with tags, fused parts or gaps): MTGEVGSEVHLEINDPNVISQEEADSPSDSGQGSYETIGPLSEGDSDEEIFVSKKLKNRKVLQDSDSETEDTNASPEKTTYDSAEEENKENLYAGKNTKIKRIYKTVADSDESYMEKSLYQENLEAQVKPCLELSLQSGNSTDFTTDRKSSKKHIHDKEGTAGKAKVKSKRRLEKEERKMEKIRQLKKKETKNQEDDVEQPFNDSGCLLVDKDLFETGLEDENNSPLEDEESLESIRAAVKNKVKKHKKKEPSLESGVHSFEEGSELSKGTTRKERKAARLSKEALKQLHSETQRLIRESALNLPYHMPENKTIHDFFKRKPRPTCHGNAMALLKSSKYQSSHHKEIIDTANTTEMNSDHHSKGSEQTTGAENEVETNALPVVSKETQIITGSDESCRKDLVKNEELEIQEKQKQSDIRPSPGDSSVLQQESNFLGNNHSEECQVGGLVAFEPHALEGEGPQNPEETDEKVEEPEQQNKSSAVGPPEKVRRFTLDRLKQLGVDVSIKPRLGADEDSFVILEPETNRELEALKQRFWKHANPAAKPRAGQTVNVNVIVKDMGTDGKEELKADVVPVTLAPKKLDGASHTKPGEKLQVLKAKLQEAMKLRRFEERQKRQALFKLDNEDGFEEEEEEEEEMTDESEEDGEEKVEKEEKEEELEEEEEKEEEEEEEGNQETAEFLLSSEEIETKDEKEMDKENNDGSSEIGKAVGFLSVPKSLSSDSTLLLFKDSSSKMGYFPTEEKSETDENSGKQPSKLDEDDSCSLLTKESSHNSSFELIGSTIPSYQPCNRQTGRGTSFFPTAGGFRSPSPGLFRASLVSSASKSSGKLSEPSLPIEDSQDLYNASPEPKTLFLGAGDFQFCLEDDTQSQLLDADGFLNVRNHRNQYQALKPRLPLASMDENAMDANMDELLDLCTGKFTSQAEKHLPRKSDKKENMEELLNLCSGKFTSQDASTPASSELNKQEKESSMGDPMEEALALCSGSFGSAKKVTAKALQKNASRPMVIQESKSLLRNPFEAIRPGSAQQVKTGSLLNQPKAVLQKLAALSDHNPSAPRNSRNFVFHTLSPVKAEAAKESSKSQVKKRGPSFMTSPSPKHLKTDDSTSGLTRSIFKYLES

Claspin Cdel2 = Claspin Cdel2 (human, UniProt Q9HAW4 1-1339, del1101-1209); experiment: EMSA; higher binding than full-length; 10 mM Tris-HCl pH 7.5, 40 ug/ml BSA, 1 mM DTT, EDTA (50 mM as printed for EMSA; 0.5 mM for filter binding), 20 mM K-glutamate, 8% glycerol, 30 C, 1 h
Sequence of Claspin Cdel2 (Q9HAW4 other isoform, or with tags, fused parts or gaps del1101-1209): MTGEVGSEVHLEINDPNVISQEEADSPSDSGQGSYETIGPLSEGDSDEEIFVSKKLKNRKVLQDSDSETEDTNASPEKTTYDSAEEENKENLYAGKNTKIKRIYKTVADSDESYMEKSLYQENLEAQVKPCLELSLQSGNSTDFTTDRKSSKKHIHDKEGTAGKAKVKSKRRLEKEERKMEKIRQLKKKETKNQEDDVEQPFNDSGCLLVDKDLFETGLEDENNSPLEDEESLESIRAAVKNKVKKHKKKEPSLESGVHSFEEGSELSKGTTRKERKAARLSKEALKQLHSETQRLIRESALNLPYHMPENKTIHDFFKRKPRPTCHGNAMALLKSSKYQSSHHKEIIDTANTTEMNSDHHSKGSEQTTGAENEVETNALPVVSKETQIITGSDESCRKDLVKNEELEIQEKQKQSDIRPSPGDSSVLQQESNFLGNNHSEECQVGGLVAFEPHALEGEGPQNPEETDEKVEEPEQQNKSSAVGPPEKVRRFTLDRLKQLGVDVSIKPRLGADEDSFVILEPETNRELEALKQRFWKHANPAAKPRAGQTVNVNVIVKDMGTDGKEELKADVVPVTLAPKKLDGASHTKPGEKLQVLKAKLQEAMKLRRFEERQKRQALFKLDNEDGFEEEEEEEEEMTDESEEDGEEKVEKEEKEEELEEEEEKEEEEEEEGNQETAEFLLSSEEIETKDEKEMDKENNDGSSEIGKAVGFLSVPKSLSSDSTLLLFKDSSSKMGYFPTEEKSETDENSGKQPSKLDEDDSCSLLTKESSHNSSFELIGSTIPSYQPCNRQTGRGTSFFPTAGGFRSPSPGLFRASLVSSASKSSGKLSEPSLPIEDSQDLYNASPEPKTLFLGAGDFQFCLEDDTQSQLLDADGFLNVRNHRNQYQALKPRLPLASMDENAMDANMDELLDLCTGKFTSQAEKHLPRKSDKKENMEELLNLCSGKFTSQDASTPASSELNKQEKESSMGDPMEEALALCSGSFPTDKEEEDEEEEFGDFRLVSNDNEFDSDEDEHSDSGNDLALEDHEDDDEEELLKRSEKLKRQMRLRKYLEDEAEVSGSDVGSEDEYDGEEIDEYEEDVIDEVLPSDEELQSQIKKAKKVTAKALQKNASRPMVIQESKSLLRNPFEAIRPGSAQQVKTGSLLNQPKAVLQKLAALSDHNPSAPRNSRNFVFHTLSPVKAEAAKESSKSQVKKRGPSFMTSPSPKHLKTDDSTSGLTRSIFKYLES

[2] = molecular target: Claspin wild-type full-length (human, UniProt Q9HAW4 1-1339); experiment: EMSA; 0.5 and 1.0 pmol protein, 20 fmol DNA; much lower affinity than C-terminal deletions; 10 mM Tris-HCl pH 7.5, 40 ug/ml BSA, 1 mM DTT, EDTA (50 mM as printed for EMSA; 0.5 mM for filter binding), 20 mM K-glutamate, 8% glycerol, 30 C, 1 h
Sequence of Claspin wild-type full-length (Q9HAW4 whole entry): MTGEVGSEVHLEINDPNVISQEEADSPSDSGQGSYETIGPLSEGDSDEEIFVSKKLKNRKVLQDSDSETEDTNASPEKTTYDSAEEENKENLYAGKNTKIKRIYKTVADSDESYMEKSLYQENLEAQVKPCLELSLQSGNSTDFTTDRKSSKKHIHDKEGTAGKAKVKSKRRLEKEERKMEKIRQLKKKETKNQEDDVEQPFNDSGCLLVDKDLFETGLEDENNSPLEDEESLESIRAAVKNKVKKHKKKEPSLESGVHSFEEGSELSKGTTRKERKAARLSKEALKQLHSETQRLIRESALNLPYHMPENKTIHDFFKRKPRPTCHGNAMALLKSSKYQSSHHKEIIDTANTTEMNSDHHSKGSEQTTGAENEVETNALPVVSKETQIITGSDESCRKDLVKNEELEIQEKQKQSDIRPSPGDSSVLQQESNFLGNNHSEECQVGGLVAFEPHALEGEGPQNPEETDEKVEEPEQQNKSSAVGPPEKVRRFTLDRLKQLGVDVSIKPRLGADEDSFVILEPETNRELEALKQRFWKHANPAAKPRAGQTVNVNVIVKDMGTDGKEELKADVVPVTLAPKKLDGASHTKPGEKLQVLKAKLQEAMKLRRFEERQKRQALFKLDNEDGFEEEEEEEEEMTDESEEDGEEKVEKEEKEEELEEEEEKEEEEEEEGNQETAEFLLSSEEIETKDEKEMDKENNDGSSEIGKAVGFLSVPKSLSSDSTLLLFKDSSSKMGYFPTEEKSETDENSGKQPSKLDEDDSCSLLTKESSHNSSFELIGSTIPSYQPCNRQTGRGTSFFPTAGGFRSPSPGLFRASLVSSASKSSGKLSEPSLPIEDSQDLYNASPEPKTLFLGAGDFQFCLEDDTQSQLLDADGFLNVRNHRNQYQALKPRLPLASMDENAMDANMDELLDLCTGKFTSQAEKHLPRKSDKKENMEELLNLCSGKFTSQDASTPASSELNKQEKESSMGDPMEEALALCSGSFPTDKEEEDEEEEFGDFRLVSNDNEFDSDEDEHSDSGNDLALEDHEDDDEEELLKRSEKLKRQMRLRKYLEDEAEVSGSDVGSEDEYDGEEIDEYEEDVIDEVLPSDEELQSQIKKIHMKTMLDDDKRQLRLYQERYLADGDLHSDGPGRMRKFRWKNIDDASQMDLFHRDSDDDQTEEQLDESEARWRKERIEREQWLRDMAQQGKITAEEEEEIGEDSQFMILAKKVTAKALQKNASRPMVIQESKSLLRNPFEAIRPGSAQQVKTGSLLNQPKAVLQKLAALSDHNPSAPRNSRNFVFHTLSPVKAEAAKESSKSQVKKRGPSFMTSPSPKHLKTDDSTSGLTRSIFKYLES

Measured: binding result

Sequence of Claspin #25 (N-terminal polypeptide) (Q9HAW4 1-896): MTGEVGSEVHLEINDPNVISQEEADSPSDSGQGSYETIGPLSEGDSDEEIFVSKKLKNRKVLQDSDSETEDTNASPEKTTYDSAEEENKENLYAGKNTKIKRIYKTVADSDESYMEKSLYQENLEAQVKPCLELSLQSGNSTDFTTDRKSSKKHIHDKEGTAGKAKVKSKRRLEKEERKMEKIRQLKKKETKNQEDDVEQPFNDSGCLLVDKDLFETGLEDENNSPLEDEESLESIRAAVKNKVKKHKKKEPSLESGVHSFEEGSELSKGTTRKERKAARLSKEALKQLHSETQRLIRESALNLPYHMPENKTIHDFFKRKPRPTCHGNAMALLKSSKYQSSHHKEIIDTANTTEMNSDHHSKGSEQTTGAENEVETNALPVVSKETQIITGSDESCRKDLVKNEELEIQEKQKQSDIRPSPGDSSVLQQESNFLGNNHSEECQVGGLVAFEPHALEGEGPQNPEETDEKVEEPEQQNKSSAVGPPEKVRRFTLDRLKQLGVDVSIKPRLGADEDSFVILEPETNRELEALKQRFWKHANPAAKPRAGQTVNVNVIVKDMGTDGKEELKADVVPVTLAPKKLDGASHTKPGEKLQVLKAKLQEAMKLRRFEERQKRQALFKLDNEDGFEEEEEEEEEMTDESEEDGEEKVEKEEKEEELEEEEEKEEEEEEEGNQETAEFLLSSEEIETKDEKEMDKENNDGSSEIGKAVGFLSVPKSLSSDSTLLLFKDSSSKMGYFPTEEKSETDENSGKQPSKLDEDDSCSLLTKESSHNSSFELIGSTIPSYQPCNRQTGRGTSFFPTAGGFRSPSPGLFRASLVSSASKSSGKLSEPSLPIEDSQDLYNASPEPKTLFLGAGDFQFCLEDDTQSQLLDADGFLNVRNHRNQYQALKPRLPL

B1: Y-fork DNA (mixed)
DNA 1: AACGTCGTGACTGGGCACTTGATCGGCCAACCTTTTTTTTTTTTTTTTTTTTTTTTTTTTTTTT
DNA 2: TTTTTTTTTTTTTTTTTTTTTTTTTTTTTTTTGGTTGGCCGATCAAGTGCCCAGTCACGACGTT
binds: [1] | Claspin Cdel1 | Claspin Cdel2 | [2]
